Measured values reported in patent publication US20070004622A1 (REGEN BIOTECH, published 2007).

Biological target: αvβ3 integrin (human, UniProt P06756 31-1048; P05106 27-788)
Experiment: cell-based or functional assay

Sequence of αvβ3 integrin (P06756 31-1048, chain 1 of 2): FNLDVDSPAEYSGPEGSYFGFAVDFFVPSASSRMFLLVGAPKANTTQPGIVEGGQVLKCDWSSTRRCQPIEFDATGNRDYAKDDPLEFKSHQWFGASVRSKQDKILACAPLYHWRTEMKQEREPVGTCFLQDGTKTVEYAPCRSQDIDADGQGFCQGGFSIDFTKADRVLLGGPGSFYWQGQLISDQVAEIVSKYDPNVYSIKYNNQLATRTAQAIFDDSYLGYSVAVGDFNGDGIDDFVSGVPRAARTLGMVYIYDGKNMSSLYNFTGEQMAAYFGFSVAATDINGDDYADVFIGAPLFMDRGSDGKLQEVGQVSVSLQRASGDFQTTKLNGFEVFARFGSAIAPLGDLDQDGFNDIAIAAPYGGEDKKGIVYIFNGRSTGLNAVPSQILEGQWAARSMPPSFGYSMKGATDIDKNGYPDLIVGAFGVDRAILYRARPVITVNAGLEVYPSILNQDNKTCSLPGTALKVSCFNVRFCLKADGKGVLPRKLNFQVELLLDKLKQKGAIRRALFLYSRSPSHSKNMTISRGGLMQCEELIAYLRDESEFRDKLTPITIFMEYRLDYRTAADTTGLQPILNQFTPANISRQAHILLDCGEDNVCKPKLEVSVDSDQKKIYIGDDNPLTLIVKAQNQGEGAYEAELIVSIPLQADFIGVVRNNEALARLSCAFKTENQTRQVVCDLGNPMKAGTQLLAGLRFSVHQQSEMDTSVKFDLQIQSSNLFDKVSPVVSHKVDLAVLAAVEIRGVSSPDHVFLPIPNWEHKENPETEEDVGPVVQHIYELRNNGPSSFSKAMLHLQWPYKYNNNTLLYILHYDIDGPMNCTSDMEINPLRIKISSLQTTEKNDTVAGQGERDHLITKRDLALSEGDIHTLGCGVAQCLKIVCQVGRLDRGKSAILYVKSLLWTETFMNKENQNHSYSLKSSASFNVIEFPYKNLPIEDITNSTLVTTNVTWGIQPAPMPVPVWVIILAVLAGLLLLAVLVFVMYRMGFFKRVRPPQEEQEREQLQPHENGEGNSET
Sequence of αvβ3 integrin (P05106 27-788, chain 2 of 2): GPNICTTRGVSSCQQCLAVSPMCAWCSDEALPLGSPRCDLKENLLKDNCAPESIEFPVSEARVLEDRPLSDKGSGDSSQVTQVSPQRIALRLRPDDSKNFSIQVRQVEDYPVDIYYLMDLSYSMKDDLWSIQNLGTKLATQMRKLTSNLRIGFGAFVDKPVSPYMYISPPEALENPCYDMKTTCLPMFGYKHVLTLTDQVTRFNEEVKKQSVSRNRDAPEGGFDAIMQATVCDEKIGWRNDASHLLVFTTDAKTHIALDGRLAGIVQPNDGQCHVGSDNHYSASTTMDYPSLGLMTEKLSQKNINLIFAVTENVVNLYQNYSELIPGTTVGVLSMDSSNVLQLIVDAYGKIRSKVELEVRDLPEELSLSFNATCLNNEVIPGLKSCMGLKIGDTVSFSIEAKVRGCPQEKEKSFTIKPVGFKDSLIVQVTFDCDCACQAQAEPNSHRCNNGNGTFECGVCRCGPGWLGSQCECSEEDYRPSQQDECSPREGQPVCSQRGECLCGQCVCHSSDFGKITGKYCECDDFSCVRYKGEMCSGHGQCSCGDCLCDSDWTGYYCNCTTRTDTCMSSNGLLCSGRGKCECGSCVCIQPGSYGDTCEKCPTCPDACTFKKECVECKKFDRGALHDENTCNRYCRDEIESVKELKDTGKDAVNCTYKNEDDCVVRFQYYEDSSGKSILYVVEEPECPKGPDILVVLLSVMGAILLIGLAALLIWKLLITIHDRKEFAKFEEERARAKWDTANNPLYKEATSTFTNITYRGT

Binder: KELANILKYHIGDEILVS [YH18 synthetic peptide derived from the fourth fas-1 domain of βig-h3 (D-IV YH18)]
- IC50 of inhibition of HUVEC tube formation on Matrigel: 500 µM
